# Data from the nanobody polyreactivity screen of Harvey et al. (2022).
# Assay: yeast display, Sf9 membrane polyspecificity reagent, FACS + sequencing; frameworks hold sequencing errors
# In short: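 A synthetic nanobody library was expressed on Saccharomyces cerevisiae BJ5465 by galactose induction for 36–48 hours. The library was stained for 1 hour at 4 °C with 10% biotinylated, detergent-solubilized Sf9 membrane reagent and enriched with streptavidin microbeads before FACS. Low and high (top ~1%) gates were set on anti-HA fluorescence for expression and streptavidin fluorescence for reagent binding, and each polyreactivity label reflects the gate of origin.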
row,Sequence,polyreactivity (PSR sort gate)
1,QVQLVESGGGLVQAGGSLRLSCAASGFTFRVNAMGWYRQAPGKERELVAAISWTGGSTYYADSVKGRFTISRDNAKNTVYLQMNSLKPEDTAVYYCATRFGGRYNEFGFWGQGTQVTVSS,low polyreactivity
2,QVQLVESGGGLVQAGGSLRLSCAASGFTFRVYAMGWNRQAPGKEREFVASITWGGGRPYYADSVKGRFTISRDNAKNTVYLQMNSLKPEDTAVYYCAAYGRLDSYVSYYYWGQGTQVTVSS,high polyreactivity
3,QVQLVESGGGLVQAGGSLRLSCAASGFTFRVYAMGWYRQPPGKERELVAVISGTGGRTYYADSVKGRFTISRDNAKNTVYLQMNSLKPEDTAVYYCAAVGLTPKAIWTSDYWGQGTQVTVSS,high polyreactivity
4,QVQLVESGGGLVQAGGSLRLSCAASGFTFRWYAMGWYRQAPGKERELVAAITSDDNTYYADSVKGRFTISRDNAKNTVYLQMNSLKPEDTAVYYCAAEYADYWTYNMGYWGQGTQVTVSS,low polyreactivity
5,QVQLVESGGGLVQAGGSLRLSCAASGFTFRWYAMGWYRQAPGKERELVAAITSRGGTTYYADSVKGRFTISRDNAKNTVYLQMNSLKPEDTAVYYCAALNSGYIGMDYWGQGTQVTVSS,high polyreactivity
6,QVQLVESGGGLVQAGGSLRLSCAASGFTFRYYAMGWSRQDPGKERELVAAITNVGSTNYADSVKGRFTISRDNAKYTVYLLMNSLKPEDTAVYYCNAPRTPWRRSYDYWGQGTQVTVSW,high polyreactivity
7,QVQLVESGGGLVQAGGSLRLSCAASGFTFRYYAMGWYRQAPGKEREFVAAITYNGVSTYYADSVKGRFTISRDNAKNTVYLQMNSLKPEDTAVYYCAADVLLSRSNTPQRPSRLYYWGQGTQVTVSS,high polyreactivity
8,QVQLVESGGGLVQAGGSLRLSCAASGFTFRYYAMGWYRQAPGKERELLAAISWSGGSTYYADSVKGRFTISRDNAKNTVYLQMNSLNPEDTAVYYCAADSVFGGRGRYQASRYYYWGQGPQVTVSS,high polyreactivity
9,QVQLVESGGGLVQAGGSLRLSCAASGFTFRYYAMGWYRQAPGKERELVAAISRSGGSTYYADSVKGRFTISRDNAKNTVYLQMNSLKPEDTAVYYCAARSHGWTPHGYDYWGQGTQVTVSS,high polyreactivity
10,QVQLVESGGGLVQAGGSLRLSCAASGFTFRYYAMGWYRQAPGKERELVAAISYRGGRTYYADSVKGRFTISRDNAKNTVYLQMNSLKPEDTAVYYCAVDYTLADVIYDYWGQGTQVTVSS,high polyreactivity
11,QVQLVESGGGLVQAGGSLRLSCAASGFTFRYYAMGWYRQAPGKERELVAAITGSGGRTYYADSVKGRFTISRDNAKNTVYLQMNSLKPEDTAVYYCARDVDPRGRYYWGQGTQVTVSS,high polyreactivity
12,QVQLVESGGGLVQAGGSLRLSCAASGFTFRYYAMGWYRQAPGKERELVAAITSGDSTYYADSVKGRFTISRDNAKNTVYLQMNSLKPEDTAVYYCNKDRRPTADFGYWGQGTQVTVSS,high polyreactivity
13,QVQLVESGGGLVQAGGSLRLSCAASGFTFRYYAMGWYRQAPGKERELVADITWSGTRTYYADSVKGRFTISRDNAKNTVYLQMNSLKPEDTAVYYCAKVTWVRGSYYRNKSSIYDYWGQGTQVTVSS,high polyreactivity
14,QVQLVESGGGLVQAGGSLRLSCAASGFTFRYYAMGWYRQAPGKERELVASINWSGGSTYYADSVKGRFTISRDNAKNTVYLQMNSLKPEDTAVYYCAADSIWGHYFARFDYWGQGTQVTVSS,high polyreactivity
15,QVQLVESGGGLVQAGGSLRLSCAASGFTFRYYAMGWYRQAPGKERELVASTYYADYVKGRFTISRDNAKNTVYLQMNSLKPEDTAVYYCNVDGTSSSPFVQKHKEMDYWGQGTQVTVSS,low polyreactivity
16,QVQLVESGGGLVQAGGSLRLSCAASGFTFRYYAMGWYRQAPGKERELVATIRTSGGSTYYADSVKGRFTISRDNAKNTVYLQMNSLKPEDTAVYYCAVRGRNWQHTRFNYWGQGTQVTVSS,high polyreactivity
17,QVQLVESGGGLVQAGGSLRLSCAASGFTFRYYAMGWYRQAPGKEWELVARITWNGGRTYYADSVKGRFTISRDNAKNTLYLQMNSLKPEDTAVYYCAARGFYRSYYWGQGTQVTVSS,high polyreactivity
18,QVQLVESGGGLVQAGGSLRLSCAASGFTFRYYAMGWYRQAPGTERELVAGITRSGGSTYYADSVKGRFTISRDNAKNTVYLQMNSLKPEDTAVYYCAAYRSIYGTRAPREFESWGQGTQVTVSS,high polyreactivity
19,QVQLVESGGGLVQAGGSLRLSCAASGFTFRYYAMVWYRQAPGKERELVAAISYSGGSTYYADSVKGRFTISRDNAKNTVYLQMNCLKPEDTAVYYCAAYYPYSREMGYWGQGTQVTVSS,high polyreactivity
20,QVQLVESGGGLVQAGGSLRLSCAASGFTFRYYVMGWYRQAPGKERELVAAITSGGRTHYADSVKGRFTISRDNAKNTDYLQMNSLKPEDTAVYYCAVRTQFAGLHYYYGYWGQGTQVTVSS,high polyreactivity

row,Sequence,polyreactivity (PSR sort gate)
1,QVQLVESGGGLVQAGGSLRLSCAASGFTFRYYVMGWYRQAPGKERELVAAITSGGSTNYADSVKGRFTISRDNAKNTVYLQMNSLKPEDTAVYYCYAAYRSYGRFDYWGQGTQVTVSS,low polyreactivity
2,QVQLVESGGGLVQAGGSLRLSCAASGFTFRYYVMGWYRQSPGKERELVAAISWSGGSTYYADSVKGRFTISRDNAKNTVYLQMNSLKPEDTAVYYCNAASLSKSDYWGQGTQVTVSS,high polyreactivity
3,QVQLVESGGGLVQAGGSLRLSCAASGFTFRYYVMGWYRQSPGKERELVASISRAGSTTNYADSVKGRFTISRDNAKNTVYLQMNSLNPEDTAVYYCNVVITPGYSYDISRGEGYWGQGTQVTVSS,high polyreactivity
4,QVQLVESGGGLVQAGGSLRLSCAASGFTFSAYTMGWYRQAPGKERELVADISSRGGSTYYADSVKGRFTISRDNAKNTVYLQMNSLKPEDTAVYYCAAVWYWTQDYDYWGQGTQVTVSS,low polyreactivity
5,QVQLVESGGGLVQAGGSLRLSCAASGFTFSENAMGWYRQAPGRERELVADIPRSGGNTHYADSEKGRFTISRDNAKNTVYLQMNSLKPEDTAVYYCAARVQWLGYGYYYWGQGTQVTVSS,high polyreactivity
6,QVQLVESGGGLVQAGGSLRLSCAASGFTFSFNAMGWYRQAPGKERELVAAITTADSTYYADSVKGRFTISRDNAKNTVYLQMNSLKPEDTAVYYCAADSYYYGYQGQTQYGWVWYDYWGQGTQVTVSS,low polyreactivity
7,QVQLVESGGGLVQAGGSLRLSCAASGFTFSFYAMGWYRQAPGKERELVATISSGGSTTYADSVKGRFTISRDNAKNTVYLQMNSLKPEDTAVYYCAARGKYYRSQDPSGPRRYDYWGQGTQVTVSS,high polyreactivity
8,QVQLVESGGGLVQAGGSLRLSCAASGFTFSGYAMGWYRQAPGKERELVAAITRRGGSTYYADSVKGRFTISRDNAKNTVYLQMNSLKPEDTAVYYCAADSGYPWELDYWGQGTQVTVSS,low polyreactivity
9,QVQLVESGGGLVQAGGSLRLSCAASGFTFSHYAKGWYRQAPGKDRELVAAITASGGNTYYADSVKGRFTISRDNAKNTVYLQMNSLKPEDTAVYYCNAVSLKFTRKYEYWGQGTQVTVSS,high polyreactivity
10,QVQLVESGGGLVQAGGSLRLSCAASGFTFSHYAMGWYRQAPGKERELVAAISWGGGSTYYADSVKGRFTISRDNAKNTVYLQMNSLKPEDTAVYYCARDVVYRGYYYGAFVYWGQGTQVTVSS,low polyreactivity
11,QVQLVESGGGLVQAGGSLRLSCAASGFTFSHYAMGWYRQAPGKERELVAAITASGGNTYYADSVKGRFTISRDNAKNTVYLQMNSLKPEDTAVYYCNAVSLKFTRKFDYWGQGTQVTVSS,high polyreactivity
12,QVQLVESGGGLVQAGGSLRLSCAASGFTFSKYAMGWYRPAPGKERELVAAISGSGGSTYYADSVKGRFTISRDNAKITVYLQMNSLKPEDTAVYYCAADGPGKYDYWGQGTQVTVSS,high polyreactivity
13,QVQLVESGGGLVQAGGSLRLSCAASGFTFSMYGMGWYRKAPGKERELVAAIRSGGSTNYADSVKGRFTISRDNAKNTVYLQMNSLKPEDTAVYYCAADVIPDGVKKPRMYYWGQGTQVTVSS,low polyreactivity
14,QVQLVESGGGLVQAGGSLRLSCAASGFTFSNYAMGWYRQAPGKERELVAAISRSGGSTYYADSVKGRFTISRDNAKNTVYLKMNSLKPEDTAVYYCNAVRYHARSGWSDYWGQGTQVTVSS,high polyreactivity
15,QVQLVESGGGLVQAGGSLRLSCAASGFTFSNYDMGWYRQAPGKEREFVADIDWSGGTTYYADSVKGRFTISRDNAKNTVYLQMNSLKPEDTAVYYCATDGYRALSYKYDYWGQGTQVTVSS,low polyreactivity
16,QVQLVESGGGLVQAGGSLRLSCAASGFTFSPNAMGWYRQAPGKERELVAAIDWSGDRTYYADSVKGRFTISRDNAKNTVYLQMNSLKPEDTAVEYCNVVRRSPGDYSYYYWGQGTQVTVSS,low polyreactivity
17,QVQLVESGGGLVQAGGSLRLSCAASGFTFSPNAMGWYRQAPGKERELVAAITTTGGSTHYADSVKRRFTISRDHAKNTVYLQMHSLKQEDTAVYYCAADWYFEYPTAFHYEYWGQGTQVTVSS,high polyreactivity
18,QVQLVESGGGLVQAGGSLRLSCAASGFTFSQYAMGWYRQAPGKERELVAAINSRGGSTYYADSVKGRFTISRDNAKNTVYLQMNSLKPEDTAVYYCNAVISGYPYEYDYWGQGTQVTVSS,high polyreactivity
19,QVQLVESGGGLVQAGGSLRLSCAASGFTFSRNAMGWYRQAPGKERELVAAISQSGGSTYYADSVKGRFTISRDNAKNTVYLQMHSLKPEDTAVYYCAAVGRLARRDYWGQGTQVTVSS,high polyreactivity
20,QVQLVESGGGLVQAGGSLRLSCAASGFTFSRYAMGWYRQAPGKERELVAAIRLRDGITYYADSVKGRFTISRDNAKNTVYLQMISLKPEDTAVYYCNAVNRTPVSQLDYWGQGTQVTVSS,high polyreactivity
